Source: patent publication US20200247894A1 (Regeneron, published 2020)

T1: Human IL2Rγ extracellular domain expressed with a C-terminal mouse IgG2a Fc tag (human)
T1 construct: whole entry is the Fc-fused construct; also called hIL-2Rg-mFc
T1 chain: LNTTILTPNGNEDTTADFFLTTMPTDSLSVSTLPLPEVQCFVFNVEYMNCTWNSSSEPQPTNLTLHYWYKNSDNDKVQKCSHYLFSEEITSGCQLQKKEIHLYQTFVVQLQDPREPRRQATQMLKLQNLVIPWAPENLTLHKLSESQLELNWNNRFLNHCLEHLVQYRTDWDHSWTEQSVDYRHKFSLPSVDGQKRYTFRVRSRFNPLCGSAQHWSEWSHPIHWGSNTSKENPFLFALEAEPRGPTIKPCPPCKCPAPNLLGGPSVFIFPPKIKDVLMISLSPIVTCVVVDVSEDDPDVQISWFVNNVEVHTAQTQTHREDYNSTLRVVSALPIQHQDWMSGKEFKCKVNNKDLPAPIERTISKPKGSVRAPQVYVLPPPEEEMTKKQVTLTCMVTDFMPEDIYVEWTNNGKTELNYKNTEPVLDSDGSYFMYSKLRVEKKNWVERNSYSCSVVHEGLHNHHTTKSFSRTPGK

T2: Mouse IL2Rγ extracellular domain expressed with a C-terminal myc-myc-hexahistidine tag (mouse)
T2 construct: whole entry is the tagged construct; also called mIL-2Rg-MMH
T2 chain: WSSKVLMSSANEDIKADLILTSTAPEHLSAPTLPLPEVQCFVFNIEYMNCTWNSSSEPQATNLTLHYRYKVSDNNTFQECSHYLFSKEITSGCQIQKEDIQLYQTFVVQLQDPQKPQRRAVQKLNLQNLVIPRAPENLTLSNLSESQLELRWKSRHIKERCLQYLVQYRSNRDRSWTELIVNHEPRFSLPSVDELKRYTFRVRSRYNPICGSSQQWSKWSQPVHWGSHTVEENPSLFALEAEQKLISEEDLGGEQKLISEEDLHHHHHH

T3: Rat IL2Rγ extracellular domain expressed with a C-terminal myc-myc-hexahistidine tag (rat)
T3 construct: whole entry is the tagged construct; also called rIL-2Rg-MMH; rat IL-2Rg-MMH
T3 chain: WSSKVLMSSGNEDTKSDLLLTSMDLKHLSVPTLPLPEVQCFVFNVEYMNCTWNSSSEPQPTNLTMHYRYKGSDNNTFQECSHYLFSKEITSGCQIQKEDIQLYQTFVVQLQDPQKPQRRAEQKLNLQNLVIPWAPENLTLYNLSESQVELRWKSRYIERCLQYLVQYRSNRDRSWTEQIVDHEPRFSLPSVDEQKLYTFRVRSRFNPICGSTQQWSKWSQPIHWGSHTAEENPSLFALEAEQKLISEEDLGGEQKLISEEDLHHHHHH

T4: Macaca fascicularis IL2Rγ extracellular domain expressed with a C-terminal myc-myc-hexahistidine tag (Macaca fascicularis)
T4 construct: whole entry is the tagged construct; also called mfIL-2Rg-MMH
T4 chain: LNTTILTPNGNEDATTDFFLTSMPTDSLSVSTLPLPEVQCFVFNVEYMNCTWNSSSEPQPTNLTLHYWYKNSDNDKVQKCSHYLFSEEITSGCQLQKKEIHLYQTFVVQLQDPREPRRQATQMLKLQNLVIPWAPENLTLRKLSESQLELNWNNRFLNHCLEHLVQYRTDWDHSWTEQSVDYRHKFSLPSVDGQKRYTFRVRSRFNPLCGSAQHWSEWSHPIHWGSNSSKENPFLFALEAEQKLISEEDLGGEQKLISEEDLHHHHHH

B1: H4H12858P (antibody, human IgG4 S228P, kappa, V domains shown)
VH: EVQLVESGGDLVQPGGSLRLSCTASGFIFRNYAMNWVRQAPGKGLEWLSGILGSNDNTYYVDSVKGRFTISRDNSRNTLYLQMNSLRAEDSAVYYCAKGDAGGFDYWGQGTLVTVSS
VL: DVVMTQSPLSLPVILGQPASISCRSSQSLVSSDGNTYLNWFQQRPGQSPRRLIYKVSNRDSGVPDRFSGSGSGTDFTLKISRVEAEDVGAYYCMQGSYWPPTFGQGTKLEIKR
notes: fully human anti-IL2Rgamma mAb, human IgG4 Fc; also called REGN9433
B2: H4H12924P2 (antibody, human IgG4 S228P, kappa, V domains shown)
VH: EVQLVESGGGLVQPGRSLRLSCAASGFTLEDYAMHWVRQAPGKGLEWVSGISWNRGSTGYADSVKGRFTISRDNAKNSLYLQMTSLRAEDTALYYCAKGFYSMDVWGQGTTVTVSS
VL: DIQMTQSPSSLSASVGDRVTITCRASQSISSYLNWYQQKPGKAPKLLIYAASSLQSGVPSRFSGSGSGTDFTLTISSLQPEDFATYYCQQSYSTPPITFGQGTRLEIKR
notes: fully human anti-IL2Rgamma mAb, human IgG4 Fc
B3: H4H12913P2 (antibody, human IgG4 S228P, kappa, V domains shown)
VH: EVQLVESGGGVVRPGGSLRLSCAASGFTFDDYGMSWVRQAPGKGLEWISSINRNGGSADYADSVKGRFTISRDNAKNSLFLQMSSLRAEDTALYHCASGEFRFDYWGQGTLVTVSS
VL: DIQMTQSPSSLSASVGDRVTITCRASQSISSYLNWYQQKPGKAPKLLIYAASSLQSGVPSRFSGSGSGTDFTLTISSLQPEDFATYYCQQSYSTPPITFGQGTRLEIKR
notes: as for B2
B4: H4H12884P (antibody, human IgG4 S228P, kappa, V domains shown)
VH: QVQLQESGPGLVKPSQTLSLTCTVSGGSISSGGYYWSWIRQHPGKGLEWIGFIYYSGKTYYNPSLKSRLTISVDTSKSQFSLKLRSVTAADTAVYYCARLGYTNSAGWFDPWGQGTLVTVSS
VL: DIQMTQSPSSLSASVGDRVTITCRASQSISSYLNWYQQKPGKAPNLLIYAASSLQSGVPSRFSGSGSGTDFTLTISSLQPEDLATYYCQQSYTTPFTFGPGTKVDIKR
notes: as for B2
B5: H4H12871P (antibody, human IgG4 S228P, kappa, V domains shown)
VH: QVQLQESGPGLVKPSQTLSLTCTVSGGSITSGGYYWSWIRQYPGQGLEWIGYIYYSGKTYYNPSFTSRITISVDTSKKQFSLKMSSVTAADTAVYYCARAGFTSSNGWFDPWGQGTLVTVSS
VL: DIQMTQSPSSLSASVGDRVTITCRASQNIRSYLNWYQQKPGKAPKLLIYSASSLQSGVPSRFSGSGSGTDFTLTISSLQPEDFPTYYCQQTYSSPWTFGPGTKVEIKR
notes: fully human anti-IL2Rgamma mAb, human IgG4 Fc; also called REGN9434
B6: H4H12926P2 (antibody, human IgG4 S228P, kappa, V domains shown)
VH: QVQLQQSGPGLVKPSQTLSLTCAISGDSVSSNIAAWNWIRLSPSRGLEWLGRTFFRSTWFYDYSLSVKGRITINPDTSKNQFSLHLNSVTPEDAAVYYCARTGRRWSLDYWGQGTLVTVSS
VL: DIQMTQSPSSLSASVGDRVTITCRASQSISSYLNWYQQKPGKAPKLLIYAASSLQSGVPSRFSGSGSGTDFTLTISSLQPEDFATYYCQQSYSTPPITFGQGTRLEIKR
notes: as for B2
B7: H4H12886P (antibody, human IgG4 S228P, kappa, V domains shown)
VH: EVQLVESGGGLVKPGGSLRLSCAASGFTFSTAWMSWVRQSPGRGLEWVGRMKSKTDGGTTFYAAPVKGRFTISRDDSKNTLYLQMNSLKTEDTAVYYCTTGLVPAFYKYYGVDVWGQGTTVTVSS
VL: DIQMTQSPSSLSASVGDRITITCQASQDITNYLNWYQQKPGKAPNLLIYDASNLVTGVPSRFSGSGSGTDFTFTILSLQPEDIATYYCQQYDSLLTFGPGTKVDIKR
notes: as for B2

Target: T1, Human IL2Rγ extracellular domain …
Experiment: SPR Biacore 4000, anti-hFc-captured mAb, 25 C
Procedure: (§1) Equilibrium dissociation constants (KD values) for IL-2Rγ binding to purified anti-IL2Rγ monoclonal antibodies were determined using a Biacore 4000 instrument equipped with a real-time surface plasmon resonance biosensor. All binding studies were performed in 10 mM HEPES, 150 mM NaCl, 3 mM EDTA, and 0.05% v/v Surfactant Tween-20, pH 7.4 (HBS-ET) running buffer at 25° C. and 37° C. The Biacore sensor surface was first derivatized by amine coupling with a monoclonal mouse anti-human Fc antibody (GE, # BR-1008-39) to capture anti-IL2Rγ monoclonal antibodies.
(§2) The dissociation of monoclonal antibody bound IL2Rγ reagents were monitored for 8-10 minutes in HBS-ET running buffer. Kinetic association (kₐ) and dissociation (kd) rate constants were determined by fitting the real-time sensorgrams to a 1:1 binding model using Scrubber 2.0c curve fitting software. Binding dissociation equilibrium constants (KD) and dissociative half-lives (t_{1/2}) were calculated from the kinetic rate constants as: […]

| Binder | 50 nM Ag Bound [RU] | Kd [nM] | koff [s⁻¹] | kon [M⁻¹ s⁻¹] | t1/2 [min] |
| --- | --- | --- | --- | --- | --- |
| B1 | 46 | 0.855 | 9.94e-05 | 116000 | 116 |
| B2 | 28 | 5.66 | 0.000411 | 72600 | 28 |
| B3 | 12 | 1.3 | 5.34e-05 | 41200 | 216 |
| B4 | 112 | 0.113 | 4.02e-05 | 355000 | 287 |
| B5 | 103 | 0.144 | 5.22e-05 | 363000 | 221 |
| B6 | 46 | 5.21 | 0.000962 | 185000 | 12 |
| B7 | 23 | 1.26 | 6.7e-05 | 53400 | 172 |

Target: T2, Mouse IL2Rγ extracellular domain …
Experiment: SPR Biacore 4000, anti-hFc-captured mAb, 25 C
Procedure: as §1, §2

| Binder | 100 nM Ag Bound [RU] | binding result |
| --- | --- | --- |
| B1 | 2 | no binding (tested: 100 nM) |
| B2 | 2 | – |
| B3 | 1 | no binding (tested: 100 nM) |
| B4 | 2 | no binding (tested: 100 nM) |
| B5 | 0 | – |
| B6 | 0 | no binding (tested: 100 nM) |
| B7 | 2 | – |

Target: T3, Rat IL2Rγ extracellular domain …
Experiment: SPR Biacore 4000, anti-hFc-captured mAb, 25 C
Procedure: as §1, §2

| Binder | 100 nM Ag Bound [RU] | binding result |
| --- | --- | --- |
| B1 | 0 | no binding (tested: 100 nM) |
| B2 | 3 | no binding (tested: 100 nM) |
| B3 | 1 | no binding (tested: 100 nM) |
| B4 | 4 | no binding (tested: 100 nM) |
| B5 | 1 | no binding (tested: 100 nM) |
| B6 | 2 | no binding (tested: 100 nM) |
| B7 | 3 | no binding (tested: 100 nM) |

Target: T4, Macaca fascicularis IL2Rγ extracellular …
Experiment: SPR Biacore 4000, anti-hFc-captured mAb, 37 C
Procedure: as §1, §2

| Binder | 100 nM Ag Bound [RU] | Kd [nM] | koff [s⁻¹] | kon [M⁻¹ s⁻¹] | t1/2 [min] |
| --- | --- | --- | --- | --- | --- |
| B1 | 47 | 4.77 | 0.00148 | 309000 | 8 |
| B2 | 24 | 20.7 | 0.0137 | 662000 | 0.8 |
| B3 | 20 | 37.3 | 0.00296 | 79300 | 4 |
| B4 | 59 | 16.1 | 0.00321 | 200000 | 4 |
| B5 | 55 | 12.7 | 0.00261 | 206000 | 4 |
| B7 | 47 | 17.7 | 0.000846 | 47800 | 14 |

Target: T1, Human IL2Rγ extracellular domain …
Experiment: SPR Biacore 4000, anti-hFc-captured mAb, 37 C
Procedure: as §1, §2

| Binder | 50 nM Ag Bound [RU] | Kd [nM] | koff [s⁻¹] | kon [M⁻¹ s⁻¹] | t1/2 [min] |
| --- | --- | --- | --- | --- | --- |
| B1 | 37 | 1.49 | 0.00025 | 167000 | 46 |
| B2 | 13 | 12.2 | 0.000183 | 15000 | 63 |
| B3 | 9 | 2.53 | 0.000185 | 73200 | 62 |
| B4 | 85 | 0.0554 | 2.69e-05 | 486000 | 429 |
| B5 | 81 | 0.0505 | 2.39e-05 | 473000 | 484 |
| B6 | 11 | 16 | 0.00326 | 204000 | 4 |
| B7 | 19 | 12.8 | 9.09e-05 | 7080 | 127 |

Target: T2, Mouse IL2Rγ extracellular domain …
Experiment: SPR Biacore 4000, anti-hFc-captured mAb, 37 C
Procedure: as §1, §2

| Binder | 100 nM Ag Bound [RU] |
| --- | --- |
| B1 | 0 |
| B2 | -1 |
| B3 | 0 |
| B4 | 1 |
| B5 | -1 |
| B6 | 0 |
| B7 | -2 |

Target: T3, Rat IL2Rγ extracellular domain …
Experiment: SPR Biacore 4000, anti-hFc-captured mAb, 37 C
Procedure: as §1, §2

| Binder | 100 nM Ag Bound [RU] |
| --- | --- |
| B1 | 0 |
| B2 | 3 |
| B3 | 3 |
| B4 | 4 |
| B5 | 1 |
| B6 | 2 |
| B7 | 4 |
